Source: paper PMC4921775, “Transient Fcho1/2⋅Eps15/R⋅AP-2 Nanoclusters Prime the AP-2 Clathrin Adaptor for Cargo Binding” (Developmental Cell, 2016)

B1: FCHO1 μHD (purified, not on beads) [human] / EPS15 616–638 peptide [human] (parent complex)
chain 1: HGVSRGPSPVVLGSQDALPIATAFTEYVHAYFRGHSPSCLARVTGELTMTFPAGIVRVFSGTPPPPVLSFRLVHTTAIEHFQPNADLLFSDPSQSDPETKDFWLNMAALTEALQRQAEQNPTASYYNVVLLRYQFSRPGPQSVPLQLSAHWQCGATLTQVSVEYGYRPGATAVPTPLTNVQILLPVGEPVTNVRLQPAATWNLEEKRLTWRLPDVSEAGGSGRLSASWEPLSGPSTPSPVAAQFTSEGTTLSGVDLELVGSGYRMSLVKRRFATGMYLVSC
chain 2: NLDFFQSDPFVGSDPFKDDPFGK

Variants of: B1
Assay: ITC; parent: 2.7e+03 nM

| Variant | Kd |
| --- | --- |
| chain 1 HGVSRGPSPVVLGSQDALPIATAFTEYVHAYFRGHSPSCLARVTGELTMTFPAGIVRVFSGTPPPPVLSFRLVHTTAIEHFQPNADLLFSDPSQSDPETKDFWLNMAALTEALQRQAEQNPTADYYNVVLLRYQFSRPGPQSVPLQLSAHWQCGATLTQVSVEYGYRPGATAVPTPLTNVQILLPVGEPVTNVRLQPAATWNLEEKRLTWRLPDVSEAGGSGRLSASWEPLSGPSTPSPVAAQFTSEGTTLSGVDLELVGSGYRMSLVKRRFATGMYLVSC [chain 1 S124D] | 9.1 µM |
| chain 1 HGVSRGPSPVVLGSQDALPIATAFTEYVHAYFRGHSPSCLARVTGELTMTFPAGIVRVFSGTPPPPVLSFRLVHTTAIEHFQPNADLLFSDPSQSDPETKDFWLNMAALTEALQRQAEQNPTASYYNVVLLRYQFSRPGPQSVPLQLSAHWQCGATLTQVSVEYGYRPGATAVPTPLTNVQILLPVGEPVTNVRLQPAATWNLEEKRLTWRLPDVSEAGGSGRLSASWEPLSGPSTPSPVAAQFTSEGTTLSGVDLELVGSGYAMGLVKRRFATGMYLVSC [chain 1 R264A, chain 1 S266G] | 77.4 µM |
| chain 1 HGVSRGPSPVVLGSQDALPIATAFTEYVHAYFRGHSPSCLARVTGELTMTFPAGIVRVFSGTPPPPVLSFRLVHTTAIEHFQPNADLLFSDPSQSDPETKDFWLNMAALTEALQRQAEQNPTASYYNVVLLRYQFSRPGPQSVPLQLSAHWQCGATLTQVSVEYGYRPGATAVPTPLTNVQILLPVGEPVTNVRLQPAATWNLEEKRLTWRLPDVSEAGGSGRLSASWEPLSGPSTPSPVAAQFTSEGTTLSGVDLELVGSGYMMSLVKRRFATGMYLVSC [chain 1 R264M] | 19.6 µM |
